The values below come from US20240409647A1, “BISPECIFIC BINDING PROTEINS AGAINST ALARMINS AND USES THEREOF” (SINOMAB BIOSCIENCE LIMITED, priority 2022, published 2024).

Where “and” joins values, the source holds several entries; their conditions need not be identical. Identical values can stand only once.

The target in experiment [1] is T1, rhesus IL17RB (Macaca mulatta, UniProt H9FWT9).
T1 construct: purchased R&D systems
T1 sequence (H9FWT9 18-502): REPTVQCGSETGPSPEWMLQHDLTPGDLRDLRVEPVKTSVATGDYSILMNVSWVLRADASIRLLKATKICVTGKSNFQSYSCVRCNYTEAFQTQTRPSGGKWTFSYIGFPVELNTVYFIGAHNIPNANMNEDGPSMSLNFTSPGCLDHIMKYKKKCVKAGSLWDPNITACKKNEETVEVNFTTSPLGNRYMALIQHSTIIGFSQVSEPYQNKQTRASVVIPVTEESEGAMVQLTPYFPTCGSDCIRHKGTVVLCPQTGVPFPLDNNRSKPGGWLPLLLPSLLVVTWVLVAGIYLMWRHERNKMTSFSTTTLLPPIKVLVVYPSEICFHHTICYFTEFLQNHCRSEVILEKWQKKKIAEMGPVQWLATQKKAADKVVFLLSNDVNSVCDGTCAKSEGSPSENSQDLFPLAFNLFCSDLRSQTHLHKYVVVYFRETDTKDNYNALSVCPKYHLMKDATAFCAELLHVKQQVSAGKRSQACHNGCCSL
The experiment can be described thus: ELISA, SM17 binding to coated IL-17RB protein (rhesus). Details: species or system rhesus monkey. Particulars: two wells. As for the experimental part:
A standard enzyme-linked immunosorbent assay (ELISA) method was used to determine the species specificity of SM17 against IL-17RB proteins. Briefly, IL-17RB proteins from human, mouse, cynomolgus or rhesus monkey (R&D systems, Minneapolis, MN) were diluted to 2.5 μg/ml in PBS and 50 μl of IL-17RB proteins were added to each well of ELISA strip. The strips were sealed with parafilm and incubated at 4° C. overnight for coating.
On the next day, strips were washed thrice with washing buffer (0.05% Tween 20 in PBS) and blocked with 100 μl per well with blocking buffer (3% BSA in PBS) for 2 hours RT before serially diluted SM17 (at a final concentration of 10, 2, 0.4, 0.08, 0.016, 0.0032, and 0.00064 μg/ml, respectively) was added.
A general note: An ELISA detects its analyte on a solid surface through an enzyme-linked reagent.

Experiment [2] has as its target T2, hIL17RA (Homo sapiens, UniProt Q96F46).
T2 construct: purchased R&D systems
The experiment can be described thus: ELISA, SM17 specificity against IL-17 receptor subunits (IL17RA). In kind it is binding. Particulars: 0.4 to 0.00064 μg/mL. As for the experimental part: A standard ELISA method was used to determine the specificity of SM17 against other human IL17 receptor subunits. Similarly, serially diluted SM17 at different concentrations (final concentrations at 0.4, 0.08, 0.016, 0.0032 and 0.00064 μg/m, respectively) was added to the wells of ELISA plates coated either with human IL-17 receptor subunits A, C, D and E (IL17RA, IL17RC, IL17RD, and IL17RE) (R&D systems).

Experiment [3] has as its system Normal human DCs. The experiment can be described thus: Dendritic cell potency assay, TSLP-induced CCL17 production. Details: key: −: no inhibition; +: weak; ++: moderate; +++: strong inhibition. Type of experiment: cell-based. Particulars: 5 μg/mL; TSLP 10 ng/mL, 5 days. The source says:
TSLP from inflamed epithelium promotes maturation of dendritic cells (DCs) to prime Th2 responses via CCL17, which induces chemotaxis of CD4+ T cells to mediate inflammation (Kitajima and Ziegler. 2013. “Cutting Edge: Identification Of The Thymic Stromal Lymphopoietin-Responsive Dendritic Cell Subset Critical For Initiation Of Type 2 Contact Hypersensitivity”. J Immunol 191: 4903-4907; Bleck et al. 2015. “Co-Expression Of Type 2 Immune Targets In Sputum-Derived Epithelial And Dendritic Cells From Asthmatic Subjects”. J Allergy Clin Immunol 136: 619-627.e5). Normal human DCs were obtained from Lonza (Bend, OR). The DCs were cultured in LGM-3 medium (Lonza). TSLP (10 ng/mL) is added into the DC cultures for 5 days in the presence of 5 μg/mL of SM17, IgG4 isotype control (Sino Biological), SM17-TSLPR bsBp (SM17 fused with TSLP receptor extracellular domain) or SM17-anti-TSLP bsBp 2 #. The supernatants are harvested and the levels of CCL17 measured by ELISA following the manufacturer's specification (R&D systems).

Experiment [4] relates to ILC2 population in human PBMC. The experiment can be described thus: ILC2 cell population in human PBMC culture (flow cytometry). The following applies: IL-2 (10 unit/mL) and three alarmins (10 ng/ml), 5 days. Details: key: −: no inhibition; +: weak; ++: moderate; +++: strong inhibition. Type of experiment: cell-based. The text has this:
While alarmins are known to work in concert to enhance ILC2 and Th2 cell functions such as increase in cell population, steroids such as Dexamethasone (Dex) can negate these effects, resulting in the mitigation of type 2 immune responses [Jia, Yi et al. American Journal Of Respiratory Cell And Molecular Biology, vol. 55, 5 (2016): 675-683]. ILC2 and Th2 cell population can be determined by flow cytometry (BD FACSVerse) following standard procedures known to those skilled in the art.
(In general: A flow cytometer gives signals particle by particle.)

The subject of experiment [5] is Human PBMCs. As to the kind of experiment: IL-5 and IL-13 release from human PBMC incubated with IL-2 and three alarmins. Particulars: SM17 5 μg/ml; IL-2 and three alarmins (10 ng/ml), three days; vs IgG4 isotype control. Type of experiment: cell-based. On the procedure: Human PBMCs (4×10^5 per group, Ixcells) were incubated with IL-2 (10 unit/mL, PeproTech) and various alarmin/alarmin combinations to mimic the pro-inflammatory cytokines release during allergic diseases. For IL-5 and IL-13 releases, PBMCs were incubated with IL-2 and three alarmins (all 10 ng/ml) for three days. For CCL17 release, PBMC was incubated with TSLP (10 ng/ml) for 1 day. For CCL8 and IFNγ releases, PBMCs were incubated with IL-12 (10 ng/ml, Sino Biological) and IL-33 (10 ng/ml) for 1 day. Cells were pretreated with SM17 (5 μg/ml) or IgG4 isotype control (5 μg/ml) for an hour before the addition of cytokines.
Supernatants were collected and the cytokine concentration were measured by ELISA kits (R&D systems). These established assays were used to test the potency of and SM17 and bsBps. […] Results were expressed in absolute amount in pg/ml.
SM17, three different SM17-anti-IL33 bsBps and three different SM17-anti-TSLP bsBps (all at 5 μg/ml) were added to human PBMC cultures under conditions that shall induce the release of IFNγ, CCL8, CCL17 and IL-5 as described in Example 11 above. The levels of different cytokines and chemotactic factors in supernatant obtained in induced PBMC were evaluated using standard ELISA methods.

As to “SM17: humanized anti-IL17RB monoclonal antibody, human IgG4 isotype; HC SEQ ID NO: 32, LC SEQ ID NO: 33”, the “OD 450 nm Absorption, rhesus IL17RB” value was 0.27 and 0.17 in experiment [1] (SM17 0.016 μg/mL); 0.51 and 0.58 in experiment [1] (SM17 0.08 μg/mL); 1.12 and 1.17 in experiment [1] (SM17 0.4 μg/mL); 1.40 and 1.45 in experiment [1] (SM17 2 μg/mL); 1.57 and 1.59 in experiment [1] (SM17 10 μg/mL). Further, in experiment [2], the “binding of SM17 to IL17RA (in words)” value is reported as “No obvious bindings”. For the same substance, in experiment [3], the “Potency, inhibition of CCL17 release on dendritic cells” value was “−”. In addition, in experiment [4], the “Cell proliferation inhibition, ILC2” value was “++”. In addition, the “secretion of IL-5 (in words)” value in experiment [5] is reported as “effectively suppress”. Moreover, in experiment [5], the “secretion of IL-13 (in words)” value is “effectively suppress”.
